Measurements as given in patent publication US7273618B2, “Method for administering agents to the central nervous system” (Chiron Corporation, priority 1998, dated 2007).

Tests used:
Format in all cases: in vivo, Sprague-Dawley rats
Conditions in all cases: rat, 7.4 nmol
[1] = Sublingual administration of 125I-IGF-I, tissue distribution by gamma counting
Protocol: Male Sprague-Dawley rats, 200-310 grams, were anesthetized with intraperitoneal pentobarbital (40 mg/kg). Drug delivery to the brain and spinal cord was assessed after sublingual administration of 7.4 nmol of ^125I-IGF-I in phosphate buffered saline, pH 7.4. Rats were placed in on their bellies with posterior elevated and mouth lowered. ^125I-IGF-I (7.4 nmol) on a small strip of filter paper was placed under the tongue. Such methods for sublingual administration are known in the art. Purushotham et al. Am J. Physiol. 269,G867-G873 (1995). Rats subsequently underwent perfusion-fixation within minutes following the completion of ^125I-IGF-I administration. Perfusion-fixation was performed with 50-100 ml physiologic saline followed by 500 ml of fixative containing 1.25% glutaraldehyde and 1% paraformaldehyde in 0.1 M Sorenson's phosphate buffer, pH 7.4, prior to dissection and ^125I measurement by gamma counting. Areas dissected included selected brain regions as well as the cervical, thoracic and sacral regions of the spinal cord.

[2] = Conjunctival administration (lower eyelid) of 125I-IGF-I, tissue distribution by gamma counting
[3] = Transdermal administration (skin of the face) of 125I-IGF-I, tissue distribution by gamma counting
Protocol: Male Sprague-Dawley rats, 200-310 grams, are anesthetized with intraperitoneal pentobarbital (40 mg/kg). Drug delivery to the brain and spinal cord was assessed after transdermal administration of 7.4 nmol of ^125I-IGF-I in phosphate buffered saline, pH 7.4. Rats are placed in on their bellies with posterior elevated and mouth lowered. ^125I-IGF-I (7.4 nmol) placed on the skin of the rat's face. Rats subsequently underwent perfusion-fixation within minutes following the completion of ^125I-IGF-I administration. Perfusion-fixation was performed with 50-100 ml physiologic saline followed by 500 ml of fixative containing 1.25% glutaraldehyde and 1% paraformaldehyde in 0.1 M Sorenson's phosphate buffer, pH 7.4, prior to dissection and ^125I measurement by gamma counting. Areas dissected included selected brain regions as well as the cervical, thoracic and sacral regions of the spinal cord.

Substance: 125I-IGF-I: insulin-like growth factor I, a single chain peptide having 70 amino acids and a molecular weight of about 7,600 daltons, radioiodinated
- concentration in meninges or dura surrounding olfactory bulb, dorsal and ventral regions of the brain, trigeminal nerve and upper cervical spinal cord [1]: High concentrations
- concentration in the trigeminal nerve itself [1]: high concentrations
- presence in the olfactory bulb, spinal cord and brain stem [1]: found
- concentration of neurologic agent in spinal cord regions (comparison) ([1]; cervical, thoracic, lumbar or sacral regions): higher in the cervical region of the spinal cord than in the thoracic region and higher in the thoracic region than in the lumbar or sacral regions
- appearance of neurologic agent in the brain and spinal cord (radioactivity) ([1]; perfusion-fixation within minutes after administration): Rapid appearance
- appearance of neurologic agent in the brain and spinal cord (radioactivity) [2]: Rapid appearance
- appearance of neurologic agent in the brain and spinal cord (radioactivity) [3]: Rapid appearance
